Where two headings read alike, the source gives them in different places.
Experiments:
[1] = molecular target: T1, recombinant SARS-CoV-2 spike S1 RBD (R319-F541), C-terminal 6-His (SARS-CoV-2, UniProt P0DTC2 319-541); assay: flow cytometry, blocking of binding to hACE-2 cells
[2] = molecular target: T2, BR P.1 variant RBD (R319-F541 with K417T, E484K, N501Y), C-terminal 6-His (SARS-CoV-2, UniProt P0DTC2 319-541); assay: lateral flow NC50, RBD-AuNP vs immobilised ACE2
[3] = molecular target: T3, SA variant RBD (R319-F541 with K417N, E484K, N501Y), C-terminal 6-His (SARS-CoV-2, UniProt P0DTC2 319-541); assay: lateral flow NC50, RBD-AuNP vs immobilised ACE2
[4] = molecular target: T4, UK variant RBD (R319-F541 with N501Y), C-terminal 6-His (SARS-CoV-2, UniProt P0DTC2 319-541); assay: lateral flow NC50, RBD-AuNP vs immobilised ACE2
[5] = molecular target: T1, recombinant SARS-CoV-2 spike S1 RBD …; assay: lateral flow NC50, RBD-AuNP vs immobilised ACE2
[6] = molecular target: IN v1 variant RBD (R319-F541 with L452R, E484Q) (SARS-CoV-2, UniProt P0DTC2 319-541); assay: dipstick, adsorbed RBD spots, Ab 10 µg/mL, GAM-AuNP
[7] = molecular target: BR P.2 variant RBD (R319-F541 with E484K) (SARS-CoV-2, UniProt P0DTC2 319-541); assay: as above
[8] = molecular target: T5, IN v2 variant RBD (R319-F541 with L452R, T478K) (SARS-CoV-2, UniProt P0DTC2 319-541); assay: as above
[9] = molecular target: L452R RBD (R319-F541 with L452R) (SARS-CoV-2, UniProt P0DTC2 319-541); assay: as above
[10] = molecular target: T2, BR P.1 variant RBD (R319-F541 with …); assay: sandwich dipstick, detector Ab5-AuNP
[11] = molecular target: T4, UK variant RBD (R319-F541 with N501Y), …; assay: sandwich dipstick, detector Ab5-AuNP
[12] = molecular target: T1, recombinant SARS-CoV-2 spike S1 RBD …; assay: sandwich dipstick, detector Ab5-AuNP
[13] = molecular target: T3, SA variant RBD (R319-F541 with K417N, …); assay: sandwich dipstick, detector Ab5-AuNP
[14] = molecular target: T2, BR P.1 variant RBD (R319-F541 with …); assay: sandwich dipstick, capture Ab7, detector Ab4-AuNP
[15] = molecular target: T4, UK variant RBD (R319-F541 with N501Y), …; assay: sandwich dipstick, capture Ab7, detector Ab4-AuNP
[16] = molecular target: T1, recombinant SARS-CoV-2 spike S1 RBD …; assay: sandwich dipstick, capture Ab7, detector Ab4-AuNP
[17] = molecular target: T3, SA variant RBD (R319-F541 with K417N, …); assay: sandwich dipstick, capture Ab7, detector Ab4-AuNP
[18] = molecular target: T1, recombinant SARS-CoV-2 spike S1 RBD …; assay: flow cytometry, blocking of binding to hACE-2 cells; remark: listed apart in the source
[19] = molecular target: K417E RBD (R319-F541 with K417E) (SARS-CoV-2, UniProt P0DTC2 319-541); assay: lateral flow NC50, RBD-AuNP vs immobilised ACE2
[20] = molecular target: T4, UK variant RBD (R319-F541 with N501Y), …; assay: lateral flow NC50, RBD-AuNP vs immobilised ACE2; remark: listed apart in the source
[21] = molecular target: T1, recombinant SARS-CoV-2 spike S1 RBD …; assay: lateral flow NC50, RBD-AuNP vs immobilised ACE2; remark: listed apart in the source
[22] = molecular target: T478K RBD (R319-F541 with T478K) (SARS-CoV-2, UniProt P0DTC2 319-541); assay: lateral flow NC50, RBD-AuNP vs immobilised ACE2
[23] = molecular target: rSARS2 RBD aa319-541, N439K, C-His (SARS-CoV-2, UniProt P0DTC2 319-541); assay: flow cytometry, blocking of binding to hACE-2 cells
[24] = molecular target: T2, BR P.1 variant RBD (R319-F541 with …); assay: as above
[25] = molecular target: T5, IN v2 variant RBD (R319-F541 with …); assay: as above
[26] = molecular target: rSARS2-B.1.1.7 S aa16-1211 2x aa mut., C-His (SARS-CoV-2, UniProt P0DTC2 16-1211); assay: as above
[27] = molecular target: rSARS2-B.1.1.7 S aa16-1211 4x aa mut., C-His (SARS-CoV-2, UniProt P0DTC2 16-1211); assay: as above
[28] = molecular target: rSARS2-B.1.617.2 S aa16-1211 10+4x aa mut., C-His (SARS-CoV-2, UniProt P0DTC2 16-1211); assay: as above

B1: 1035240 (antibody, V domains shown)
VH: QVQLQQSGAELARPGASVKMSCKASGYTFTTYTMHWVKQRPGQGLEWIGYINPSSGYTNYNQKFKDKATLTADTSSSTAYMQLSSLTSEDSAVYYCARRNPLYAMDYWGQGTSVTVSS
VL: DIKMTQSPSSMYASLGERVTITCKASQDINSYLNWFQQKPGKSPKTLIYRANRLVDGVPSRFSGSGSGQDYSLTISSLEYEDMGIYYCLQYDEFPYTFGGGTKLEIK
percent blocking [1]: 99.1%
IC50 [2]: > 45 µg/mL
IC50 [3]: > 45 µg/mL
IC50 [4]: 0.86 µg/mL
IC50 [5]: 0.34 µg/mL
binding result [6]: no binding (tested: 10 µg/mL)
binding result [7]: no binding (tested: 10 µg/mL)
binding result [8]: no binding (tested: 10 µg/mL)
binding result [9]: no binding (tested: 10 µg/mL)
detection sensitivity [10]: 0.001 µg/mL
detection sensitivity [11]: 0.001 µg/mL
detection sensitivity [12]: 0.001 µg/mL
detection sensitivity [13]: 0.001 µg/mL
detection sensitivity [14]: 0.1 µg/mL
detection sensitivity [15]: 0.01 µg/mL
detection sensitivity [16]: 0.01 µg/mL
detection sensitivity [17]: 0.1 µg/mL
percent blocking [18]: 99.1%
IC50 [19]: 0.33 µg/mL
IC50 [20]: 0.86 µg/mL
IC50 [21]: 0.34 µg/mL
IC50 [22]: 0.61 µg/mL
percent blocking [23]: 49%
percent blocking [24]: 0%
percent blocking [25]: 0.7%
percent blocking [26]: 91.2%
percent blocking [27]: 78.6%
percent blocking [28]: 0%
